Test results from patent US20090215195A1.

Molecular target: Human complement component C5 (human) (UniProt P01031)
Test: cell-based or functional assay

Recombinant SET1 (SSL7), allele from Staphylococcus aureus clinical isolate GL1
SET1 concentration at maximum survival of E. coli in human serum: 2.1 nM
surviving E. coli cells in human serum, maximum level: 14%
